Measurements reported in patent US9765346B2, “Biological methods for preparing a fatty dicarboxylic acid” (Verdezyne, Inc., priority 2011, dated 2017).

Biological target: T1, Pox5 (Candida tropicalis, UniProt P08790)
T1 construct: made in house; host or cells: E. coli Rosetta II BL21, pET26b; crude cell lysate (10 ug per reaction)
Assay type: biochemical, Candida strain ATCC20336
Method: To express an enzyme, a colony from each transformation of Rosetta cells was used to start a 5 ml overnight culture of LB containing the antibiotics kanamycin (to select for pET26b) and chloramphenicol (to select for a second plasmid found in Rosetta II cells that mediates improved translation of eukaryotic proteins expressed in E. coli) grown at 37° C. The next morning, the overnight culture was used to seed 30 ml of LB containing kanamycin and chloramphenicol to an OD600 reading of 0.1. The 30 ml cultures were grown at 37° C. for 2 hours and then placed on ice for 10 minutes. To induce expression, isopropyl-beta-D-thiogalactopyranoside (IPTG) was added to the culture to a final concentration of 0.1 mM. In some cases induction was performed using Novagen Overnight Express Autoinduction System 1 (CAT#71300-3). The cells were then shaken at 15° C. overnight to express the acyl CoA oxidase.
To test the activity of the acyl CoA oxidase, cells from the overnight induction were pelleted at 1046×g at 4° C. in 50 ml conical tubes. The cell pellets were resuspended in 1 ml of 50 mM KPO4, pH 7.6, 50 μM FAD buffer and then transferred to a 2 ml centrifuge tube. A Misonix Sonicator 3000 (QSonica, Newtown, Conn.) was used to lyse the cells, which were sonicated at a power setting of 2 for 2 pulses of 20 seconds each. The lysates were placed on ice for 30 seconds in between each pulse. To obtain a supernatant, cell debris was pelleted at […] for 10 mins in a 4° C. microcentrifuge. The supernatant was transferred to a 1.5 ml centrifuge tube and Bradford assays (Thermoscientific) were performed on cell lysates according to manufacturer's specifications to determine protein concentration in preparation for the acyl-CoA oxidase assays. A Beckman Coulter DTX-800 Multimode Detector spectrophotometer was used for the assays. The spectrophotometer was set to read for 5 minutes at 500 nm, 30° C. Each reaction was 200 μl in volume and contained 10 μg of cell lysate in 50 mM KPO4, pH 7.6, […] BSA, 0.05% Triton X-100, 250 μM fatty acyl-coA substrate, 50 μM FAD, 10 U horseradish peroxidase, 25 mM p-hydroxybenzoic acid and 1 mM 4-aminoantipyrine. Fatty acyl-CoA substrates covered a range from hexanoyl CoA (six carbon chain length) to oleoyl CoA (eighteen carbon chain length).
Pox4 and Pox5 from Candida strain ATCC20336 were cloned into pET26b for expression in E. coli and assayed for acyl CoA oxidase activity in vitro. The activity profiles of the genetically modified Pox4 and Pox5 were compared to the activity profile of the wild type enzymes. To alter their substrate activity profile, site directed mutagenesis was performed on several locations in Pox4 and Pox5. Complementary primers encoding the point mutation(s) were used to amplify the coding sequences of Pox4 or Pox5 generating two to four PCR products that were then “stitched” together to regenerate the entire coding region using overlap extension PCR (FIG. 22). […] PCR was performed using oligonucleotides A and B to produce a product with overlap to a PCR product generated using oligonucleotides C and D. The A-B product was used as a primer for the C-D product, and vice versa, for overlap extension. Several mutagenic primer pairs, for example, like the B-C primer pair, were used to produce mutations at different locations that were “stitched” together, i.e. A-B, C-D, E-F, etc. to generate an intact, full length coding region. […]

[1] = wild type, expressed in E. coli

In the case of “Pox5: native acyl-CoA oxidase isozyme of Candida strain ATCC20336”, the “activity on C6 and C8 substrates” value (FIG. 21, wild type) was “low activity”, the “activity on substrates below C10” value (FIG. 21, wild type) was “decrease in activity” and the substrate specificity (native isozyme) was “narrow substrate specificity”. For the same substance, the “activity on a C6 substrate” value [1] was “not very active” and the “substrates on which active” value [1] was “C8 all the way to C18:1”.
